Laboratory results reported in paper PMC12707108, “CpoS-Inc interactions facilitate host cell modulation during Chlamydia trachomatis infection” (Infection and Immunity, 2025).
Values joined by “and” are separate entries in the source; they are usually repeats but may differ in a detail not shown here. Equal values may be shown once.

Assays:
[1] = molecular target: MBP-InaC C-ter (Chlamydia trachomatis serovar L2 (LGV 434/Bu)); experiment: SEC + other: mass photometry + native gel or EMSA; purified MBP-tagged proteins; Superdex 200 SEC, mass photometry of SEC fractions in DPBS, native PAGE
[2] = molecular target: MBP-IPAM C-ter (Chlamydia trachomatis serovar L2 (LGV 434/Bu)); experiment: as above
[3] = molecular target: the molecule itself; experiment: as above
[4] = molecular target: the molecule itself; experiment: not stated; CpoS C-ter in acidic and basic buffer conditions (Fig. S3C)
[5] = molecular target: the molecule itself; experiment: mass photometry; fractions of MBP-CpoS C-ter from Superdex 200 SEC (13 and 14 mL); 100 nM protein added to DPBS, room temperature

In the case of MBP-InaC C-ter (domain or fragment), the stoichiometry N [1] is reported as 2 and 3.

With MBP-IPAM C-ter (domain or fragment) the stoichiometry N [2] was 2 and 3.

B1: MBP-IncA C-ter (domain or fragment)
chain: QKTANLHLYQDLQREVGSLKEINFMLSVLQKEFLHLSKEFATTSKDLSAVSQDFYSCLQGFRDNYKGFESLLDEYKNSTEEMRKLFSQEIIADLKGSVASLREEIRFLTPLAEEVRRLAHNQESLTAAIEELKTIRDSLRDEIGQLSQLSKTLTSQIALQRKESSDLCSQIRETLSSPRKSASPSTKSS
For B1, the “stoichiometry N” value [3] was 4.

B2: MBP-CpoS C-ter (domain or fragment)
chain: RARSRRVEIERQLEVVSMQIEELEEEYKALSEVYRANLEARRAVSKYCQELEEKILDLCKRHAATICSIEEDAKQEIRHQTERFKQRLQQNQNTCSQLTAELCKLRSENKALSERLQVQASRRKK
notes: also called MBP-tagged CpoS C-ter; MBP-tagged CpoS; source: E. coli BL21 (DE3), purified (amylose resin, Superdex 200)
In the case of B2, the “stoichiometry N” value [4] is reported as 2 and the “stoichiometry N” value [5] is reported as 4 and 8.
